# In article PMC9482650, “Quantitative fragmentomics allow affinity mapping of interactomes” (Nature Communications, 2022):
# T1: GIPC1, O14908
# T1 sequence (O14908 128-223, limits assumed, looked up): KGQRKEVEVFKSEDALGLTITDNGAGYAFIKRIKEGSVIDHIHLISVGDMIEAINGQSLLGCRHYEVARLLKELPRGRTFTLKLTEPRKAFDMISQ
# T2: MAGI2_1, Q86UL8
# T2 sequence (Q86UL8 12-111, limits assumed, looked up): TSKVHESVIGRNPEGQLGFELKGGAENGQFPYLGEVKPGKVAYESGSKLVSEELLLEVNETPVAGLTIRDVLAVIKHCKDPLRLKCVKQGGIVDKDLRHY
# T3: MPDZ_11, O75970
# T3 sequence (O75970 1720-1817, limits assumed, looked up): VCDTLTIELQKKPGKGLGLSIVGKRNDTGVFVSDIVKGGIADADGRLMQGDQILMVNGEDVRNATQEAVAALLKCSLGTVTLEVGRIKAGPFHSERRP
# T4: MPDZ_13, O75970
# T4 sequence (O75970 1982-2070, limits assumed, looked up): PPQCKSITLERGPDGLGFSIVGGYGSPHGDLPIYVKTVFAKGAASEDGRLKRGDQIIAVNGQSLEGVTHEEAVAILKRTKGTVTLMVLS
# T5: PDZD2_5, O15018
# T5 sequence (O15018 2617-2716, limits assumed, looked up): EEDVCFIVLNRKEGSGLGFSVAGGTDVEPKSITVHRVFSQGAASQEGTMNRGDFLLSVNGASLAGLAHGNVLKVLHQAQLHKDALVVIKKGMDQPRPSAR
# T6: PDZD2_6, O15018
# T6 sequence (O15018 2745-2839, limits assumed, looked up): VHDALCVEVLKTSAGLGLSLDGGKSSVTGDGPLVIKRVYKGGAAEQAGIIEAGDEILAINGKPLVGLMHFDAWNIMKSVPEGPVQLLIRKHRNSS
# T7: PDZD7_1, Q9H5P4
# T7 sequence (Q9H5P4 81-178, limits assumed, looked up): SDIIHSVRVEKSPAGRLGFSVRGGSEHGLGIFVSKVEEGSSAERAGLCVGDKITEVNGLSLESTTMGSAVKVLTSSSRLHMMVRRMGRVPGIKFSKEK
# T8: SHROOM2, Q13796
# T8 sequence (Q13796 21-118, limits assumed, looked up): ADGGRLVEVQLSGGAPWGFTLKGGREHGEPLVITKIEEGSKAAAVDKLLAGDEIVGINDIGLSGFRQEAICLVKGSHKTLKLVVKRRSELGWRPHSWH
# T9: SHROOM3, Q8TF72
# T9 sequence (Q8TF72 20-120, limits assumed, looked up): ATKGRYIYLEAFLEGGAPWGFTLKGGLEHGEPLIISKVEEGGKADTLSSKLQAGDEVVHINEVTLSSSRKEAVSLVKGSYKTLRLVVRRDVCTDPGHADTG
# T10: SIPA1L3, O60292
# T10 sequence (O60292 961-1052, limits assumed, looked up): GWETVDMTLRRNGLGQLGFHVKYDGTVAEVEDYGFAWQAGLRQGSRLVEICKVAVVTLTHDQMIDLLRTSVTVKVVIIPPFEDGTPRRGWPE
# T11: TJP3_2, O95049
# T11 sequence (O95049 190-282, limits assumed, looked up): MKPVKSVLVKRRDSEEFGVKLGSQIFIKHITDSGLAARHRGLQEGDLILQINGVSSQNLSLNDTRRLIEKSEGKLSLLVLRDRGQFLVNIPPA
# Assays:
# Assay in all cases: holdup assay
# Set-up in all cases: key: below the threshold = too weak to quantify, mostly under pKd 3.1 to 4
# [1] = target: AHNAK2, Q8IVF2
# [2] = target: CARD14, Q9BXL6
# [3] = target: DLG2_1, Q15700
# [4] = target: DLG5_2, Q8TDM6
# [5] = target: T1, GIPC1, O14908
# [6] = target: GRIP2_2, Q9C0E4
# [7] = target: LMO7, Q8WWI1
# [8] = target: MAGI1_5, Q96QZ7
# [9] = target: MAGI1_6, Q96QZ7
# [10] = target: T2, MAGI2_1, Q86UL8
# [11] = target: MAGI3_3, Q5TCQ9
# [12] = target: MAGI3_5, Q5TCQ9
# [13] = target: MAGIX, Q9H6Y5
# [14] = target: MAST3, O60307
# [15] = target: T3, MPDZ_11, O75970
# [16] = target: T4, MPDZ_13, O75970
# [17] = target: PARD3B_2, Q8TEW8
# [18] = target: PARD3_1, Q8TEW0
# [19] = target: T5, PDZD2_5, O15018
# [20] = target: T6, PDZD2_6, O15018
# [21] = target: T7, PDZD7_1, Q9H5P4
# [22] = target: SDCBP_1, O00560
# [23] = target: T8, SHROOM2, Q13796
# [24] = target: T9, SHROOM3, Q8TF72
# [25] = target: T10, SIPA1L3, O60292
# [26] = target: T11, TJP3_2, O95049
# [27] = plain residues with an end cap or a label only (N-terminal biotin on a linker: ttds)
# [28] = plain residues with an end cap or a label only (N-terminal biotin on a linker: none)
# Chain of DLG5_2, Q8TDM6 (Q8TDM6 714-800): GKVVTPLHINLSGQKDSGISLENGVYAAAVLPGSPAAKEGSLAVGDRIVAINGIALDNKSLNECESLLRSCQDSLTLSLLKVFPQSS
# Chain of SDCBP_1, O00560 (O00560 111-198): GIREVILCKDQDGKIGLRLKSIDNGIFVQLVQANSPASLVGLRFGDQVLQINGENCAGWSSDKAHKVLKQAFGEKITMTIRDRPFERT
# Chain of MAST3, O60307 (O60307 945-1048): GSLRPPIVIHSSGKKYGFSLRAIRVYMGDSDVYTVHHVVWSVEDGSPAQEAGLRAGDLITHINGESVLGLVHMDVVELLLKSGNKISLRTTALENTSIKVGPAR
# Chain of GRIP2_2, Q9C0E4 (Q9C0E4 137-245): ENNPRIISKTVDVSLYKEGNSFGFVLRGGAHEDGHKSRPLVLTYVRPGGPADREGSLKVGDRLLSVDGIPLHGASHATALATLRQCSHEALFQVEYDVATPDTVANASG
# Chain of LMO7, Q8WWI1 (Q8WWI1 1037-1138): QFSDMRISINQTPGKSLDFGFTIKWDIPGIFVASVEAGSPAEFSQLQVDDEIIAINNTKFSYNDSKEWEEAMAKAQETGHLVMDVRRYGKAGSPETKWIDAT
# Chain of MAGI1_5, Q96QZ7 (Q96QZ7 986-1098): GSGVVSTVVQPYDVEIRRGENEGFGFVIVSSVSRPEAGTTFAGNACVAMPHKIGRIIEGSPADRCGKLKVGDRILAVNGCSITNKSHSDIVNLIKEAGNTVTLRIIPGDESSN
# Chain of MAGI3_5, Q5TCQ9 (Q5TCQ9 847-941): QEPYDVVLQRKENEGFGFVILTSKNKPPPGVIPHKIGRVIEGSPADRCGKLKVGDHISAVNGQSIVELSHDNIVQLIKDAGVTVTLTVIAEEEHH
# Chain of AHNAK2, Q8IVF2 (Q8IVF2 108-193): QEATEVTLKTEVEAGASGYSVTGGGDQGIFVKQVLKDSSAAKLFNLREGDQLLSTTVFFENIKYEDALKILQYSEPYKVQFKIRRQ
# Chain of MAGI3_3, Q5TCQ9 (Q5TCQ9 572-655): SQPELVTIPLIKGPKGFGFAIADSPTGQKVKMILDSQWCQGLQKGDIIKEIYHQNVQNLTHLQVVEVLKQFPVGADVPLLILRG
# Chain of MAGI1_6, Q96QZ7 (Q96QZ7 1146-1238): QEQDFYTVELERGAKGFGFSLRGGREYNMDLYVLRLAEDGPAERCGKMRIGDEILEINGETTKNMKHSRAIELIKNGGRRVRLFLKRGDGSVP
# Chain of PARD3B_2, Q8TEW8 (Q8TEW8 376-471): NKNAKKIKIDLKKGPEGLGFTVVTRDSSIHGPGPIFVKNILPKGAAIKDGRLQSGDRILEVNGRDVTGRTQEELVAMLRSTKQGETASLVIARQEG
# Chain of MAGIX, Q9H6Y5 (Q9H6Y5 118-211): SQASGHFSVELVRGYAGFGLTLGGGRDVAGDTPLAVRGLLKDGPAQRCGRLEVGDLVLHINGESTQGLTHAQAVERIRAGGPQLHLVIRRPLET
# Chain of CARD14, Q9BXL6 (Q9BXL6 558-663): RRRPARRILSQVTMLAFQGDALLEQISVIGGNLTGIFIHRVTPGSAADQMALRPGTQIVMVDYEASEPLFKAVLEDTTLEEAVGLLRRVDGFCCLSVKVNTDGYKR
# Chain of PARD3_1, Q8TEW0 (Q8TEW0 264-372): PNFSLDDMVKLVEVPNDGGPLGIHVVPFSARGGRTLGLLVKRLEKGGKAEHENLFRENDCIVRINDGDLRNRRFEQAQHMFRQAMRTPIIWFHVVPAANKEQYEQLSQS
binder,measurement,setting,value
"HRTCYLVTQL [ASIC3, Q9UHC3]",pKd,[1]; [27],below the threshold
same,pKd,[2]; [27],below the threshold
same,pKd,[3]; [27],below the threshold
same,pKd,[4]; [27],below the threshold
same,pKd,[5]; [27],below the threshold
same,pKd,[6]; [27],4.28
same,pKd,[7]; [27],below the threshold
same,pKd,[8]; [27],5.13
same,pKd,[9]; [27],below the threshold
same,pKd,[10]; [27],4.01
same,pKd,[11]; [27],below the threshold
same,pKd,[12]; [27],4.64
same,pKd,[13]; [27],below the threshold
same,pKd,[14]; [27],4.04
same,pKd,[15]; [27],below the threshold
same,pKd,[16]; [27],below the threshold
same,pKd,[17]; [27],below the threshold
same,pKd,[18]; [27],below the threshold
same,pKd,[19]; [27],below the threshold
same,pKd,[20]; [27],below the threshold
same,pKd,[21]; [27],below the threshold
same,pKd,[22]; [27],below the threshold
same,pKd,[23]; [27],below the threshold
same,pKd,[24]; [27],below the threshold
same,pKd,[25]; [27],below the threshold
same,pKd,[26]; [27],below the threshold
"DSKPPLPPDEWV [MERS-E, K9N5R3]",pKd,[1]; [28],below the threshold
same,pKd,[2]; [28],below the threshold
same,pKd,[3]; [28],below the threshold
same,pKd,[4]; [28],4
same,pKd,[5]; [28],below the threshold
same,pKd,[6]; [28],below the threshold
same,pKd,[7]; [28],below the threshold
same,pKd,[8]; [28],below the threshold
same,pKd,[9]; [28],4.66
same,pKd,[10]; [28],below the threshold
same,pKd,[11]; [28],below the threshold
same,pKd,[12]; [28],below the threshold
same,pKd,[13]; [28],below the threshold
same,pKd,[14]; [28],below the threshold
same,pKd,[15]; [28],below the threshold
same,pKd,[16]; [28],below the threshold
same,pKd,[17]; [28],below the threshold
same,pKd,[18]; [28],below the threshold
same,pKd,[19]; [28],below the threshold
same,pKd,[20]; [28],below the threshold
same,pKd,[21]; [28],below the threshold
same,pKd,[22]; [28],4.12
same,pKd,[23]; [28],below the threshold
same,pKd,[24]; [28],below the threshold
same,pKd,[25]; [28],3.73
same,pKd,[26]; [28],below the threshold
"DPLTPSRSQL [DGKK, Q5KSL6]",pKd,[1]; [27],below the threshold
same,pKd,[2]; [27],below the threshold
same,pKd,[3]; [27],below the threshold
same,pKd,[4]; [27],below the threshold
same,pKd,[5]; [27],below the threshold
same,pKd,[6]; [27],below the threshold
same,pKd,[7]; [27],below the threshold
same,pKd,[8]; [27],below the threshold
same,pKd,[9]; [27],below the threshold
same,pKd,[10]; [27],below the threshold
same,pKd,[11]; [27],below the threshold
same,pKd,[12]; [27],below the threshold
same,pKd,[13]; [27],below the threshold
same,pKd,[14]; [27],below the threshold
same,pKd,[15]; [27],below the threshold
same,pKd,[16]; [27],below the threshold
same,pKd,[17]; [27],below the threshold
same,pKd,[18]; [27],below the threshold
same,pKd,[19]; [27],below the threshold
same,pKd,[20]; [27],below the threshold
same,pKd,[21]; [27],below the threshold
same,pKd,[22]; [27],below the threshold
same,pKd,[23]; [27],below the threshold
same,pKd,[24]; [27],below the threshold
same,pKd,[25]; [27],below the threshold
same,pKd,[26]; [27],below the threshold
"RTRQRNETQV [HPV51-E6, P26554]",pKd,[1]; [27],below the threshold
same,pKd,[2]; [27],4.34
same,pKd,[3]; [27],5.06
same,pKd,[4]; [27],4.63
same,pKd,[5]; [27],5.1
same,pKd,[6]; [27],below the threshold
same,pKd,[7]; [27],below the threshold
same,pKd,[8]; [27],below the threshold
same,pKd,[9]; [27],below the threshold
same,pKd,[10]; [27],below the threshold
same,pKd,[11]; [27],below the threshold
same,pKd,[12]; [27],below the threshold
same,pKd,[13]; [27],below the threshold
same,pKd,[14]; [27],below the threshold
same,pKd,[15]; [27],below the threshold
same,pKd,[16]; [27],below the threshold
same,pKd,[17]; [27],4.39
same,pKd,[18]; [27],below the threshold
same,pKd,[19]; [27],below the threshold
same,pKd,[20]; [27],below the threshold
same,pKd,[21]; [27],below the threshold
same,pKd,[22]; [27],below the threshold
same,pKd,[23]; [27],below the threshold
same,pKd,[24]; [27],below the threshold
same,pKd,[25]; [27],below the threshold
same,pKd,[26]; [27],below the threshold
